Results as given in patent US4029771A, “Composition for the treatment of bacterial-intestinal infections” (priority 1975, dated 1977).

What was measured:
experimental animals = assay: Tolerability in experimental animals at therapeutically active doses; type: in vivo
[1] = system: children affected by acute initial gastroenteropathy; assay: Clinical efficacy test in 32 children with acute initial gastroenteropathy vs chemiantibiotic group; type: in vivo
Method: The tests were conducted on a group of 32 children (14 males, 18 females) of an age group comprised between 2 months and 2 years, affected by acute initial gastroenteropathy.
The test group comprised forms of substantial gravity (15.6% of the total cases), forms of intermediate gravity (43.7%), and finally forms of least gravity (40.6%), determined by known clinical diagnostic methods.
In all cases, in addition to the oral or parental rehydration (in 21.8% of the cases there was actually performed a parental rehydration with glucosaline and polyelectric solutions) and to the usual dietetic treatment, there was performed symptomatic therapy with anticholinergic agents.
The product was administered orally to all the test subjects at a dosage of 300 mg. per day, divided into three equal doses.
The duration of the therapy varied from a minimum of 5 days to a maximum of 10 days.
It was thought opportune, on a clinical plane, to evaluate the test results according to the following parameters:
(1) average time of normalization of the abdomen.
(2) number and percentage of the cases with regularization of the abdomen within the first 48 hours (see Table II and figure 1).
(3) average duration of the time of therapy.
There was further compared the test subjects with a group of subjects of similar age and equally affected by acute initial gastroenteropathy which had received, in addition to the usual symptomatic and dietetic therapy, a chemiantibiotic treatment.
It is important to note that this second group presented a clinical physionomy similar to that of the test group (and therefore with a percentage division equal between forms of different gravity) and further belonging chronologically to the same epidemiological period.

[2] = system: male and female rat (Sprague-Dawley); assay: Acute toxicity on single administration, male and female rat (Sprague-Dawley); type: in vivo; conditions: for Mortality after 7 days: 1000 mg/kg single dose, 10 rats per dose; for LD50: single administration, 7 days
Method: (a) Toxicity on single administration.
The experiment was conducted on rats and mice (male and female) by oral and intraperitoneal administration of conalbumen dissolved in double-distilledsterile water. The animals were kept under control for 7 days following the administration.
Acute toxicity of the product after a single admini-
stration to the male and female rat (Sprague-Dawley).

[3] = system: germs which are pathogenic to man; assay: Treatment of experimental infections in laboratory animals; type: in vivo; conditions: laboratory animals injected with germs pathogenic to man
[4] = Storage stability of the liophylized product; type: physicochemical
[5] = 32 cases per group, product oral 300 mg per day in three doses
[6] = percentage distribution, drawing
[7] = product vs chemiantibiotics group

B1: conalbumen: transferrin (ovotransferrin or conalbumen) extracted in a pure state from egg white (protein, UniProt P02789 20-705, looked up)
Ovotransferrin: APPKSVIRWCTISSPEEKKCNNLRDLTQQERISLTCVQKATYLDCIKAIANNEADAISLDGGQAFEAGLAPYKLKPIAAEVYEHTEGSTTSYYAVAVVKKGTEFTVNDLQGKTSCHTGLGRSAGWNIPIGTLLHRGAIEWEGIESGSVEQAVAKFFSASCVPGATIEQKLCRQCKGDPKTKCARNAPYSGYSGAFHCLKDGKGDVAFVKHTTVNENAPDQKDEYELLCLDGSRQPVDNYKTCNWARVAAHAVVARDDNKVEDIWSFLSKAQSDFGVDTKSDFHLFGPPGKKDPVLKDLLFKDSAIMLKRVPSLMDSQLYLGFEYYSAIQSMRKDQLTPSPRENRIQWCAVGKDEKSKCDRWSVVSNGDVECTVVDETKDCIIKIMKGEADAVALDGGLVYTAGVCGLVPVMAERYDDESQCSKTDERPASYFAVAVARKDSNVNWNNLKGKKSCHTAVGRTAGWVIPMGLIHNRTGTCNFDEYFSEGCAPGSPPNSRLCQLCQGSGGIPPEKCVASSHEKYFGYTGALRCLVEKGDVAFIQHSTVEENTGGKNKADWAKNLQMDDFELLCTDGRRANVMDYRECNLAEVPTHAVVVRPEKANKIRDLLERQEKRFGVNGSEKSKFMMFESQNKDLLFKDLTKCLFKVREGTTYKEFLGDKFYTVISSLKTCNPSDILQMCSFLEGK
- Toxic manifestation or significant side effects (experimental animals): does not result in toxic manifestation or in significant side effects
- Average time of Therapy [1, 5]: 6,1 days
- Percentage normalization within 48 hours [1, 5]: 53,1 Percentage
- Average time of normalization of the abdomen ([1]; 32 cases per group, product oral 300 mg per day in three doses, p <0,40): 2,56
- No. of cases with normalization within 48 hours ([1]; of 32 cases per group, product oral 300 mg per day in three doses): 17
- Clinical results ([1]; overall): very favorable
- Clinical results with respect to the group treated with chemiantibiotics ([1]; overall comparison): definitely better
- Distribution in the time of normalization of the abdomen, days with most cases [1, 6]: between the second and third day
- Peak in the time of normalization of the abdomen [1, 6]: second day
- Average time of normalization of the abdomen, comparison with chemiantibiotics [1, 7]: slightly lower
- Number of cases and percentage of normalization of the abdomen within the first 48 hours, comparison with chemiantibiotics [1, 7]: higher
- Mortality after 7 days ([2]; female 90-105 g, oral): 0/10
- LD50 ([2]; female 90-105 g, oral): > 1000 mg/kg
- Mortality after 7 days ([2]; female 100-110 g, i.p.): 0/10
- LD50 ([2]; female 100-110 g, i.p.): > 1000 mg/kg
- Mortality after 7 days ([2]; male 100-120 g, i.p.): 0/10
- LD50 ([2]; male 100-120 g, i.p.): > 1000 mg/kg
- Mortality after 7 days ([2]; male 100-130 g, oral): 0/10
- LD50 ([2]; male 100-130 g, oral): > 1000 mg/kg
- Efficacy in experimental infections [3]: surprising efficacy
- Maintains its properties unchanged ([4]; liophylized, kept at ambient or lower temperature): at least 6 months
- Period for which the product can be kept ([4]; vials containing 100 mg. or more, liophylized form): indefinite periods
